# Laboratory results taken from patent publication US20100041597A1 (published 2010).
# T1: PKC-ε (purified isoform) (Homo sapiens (Human), UniProt Q02156 1-737)
# T1 construct: also called PKC-epsilon; PKCepsilon
# T1 sequence: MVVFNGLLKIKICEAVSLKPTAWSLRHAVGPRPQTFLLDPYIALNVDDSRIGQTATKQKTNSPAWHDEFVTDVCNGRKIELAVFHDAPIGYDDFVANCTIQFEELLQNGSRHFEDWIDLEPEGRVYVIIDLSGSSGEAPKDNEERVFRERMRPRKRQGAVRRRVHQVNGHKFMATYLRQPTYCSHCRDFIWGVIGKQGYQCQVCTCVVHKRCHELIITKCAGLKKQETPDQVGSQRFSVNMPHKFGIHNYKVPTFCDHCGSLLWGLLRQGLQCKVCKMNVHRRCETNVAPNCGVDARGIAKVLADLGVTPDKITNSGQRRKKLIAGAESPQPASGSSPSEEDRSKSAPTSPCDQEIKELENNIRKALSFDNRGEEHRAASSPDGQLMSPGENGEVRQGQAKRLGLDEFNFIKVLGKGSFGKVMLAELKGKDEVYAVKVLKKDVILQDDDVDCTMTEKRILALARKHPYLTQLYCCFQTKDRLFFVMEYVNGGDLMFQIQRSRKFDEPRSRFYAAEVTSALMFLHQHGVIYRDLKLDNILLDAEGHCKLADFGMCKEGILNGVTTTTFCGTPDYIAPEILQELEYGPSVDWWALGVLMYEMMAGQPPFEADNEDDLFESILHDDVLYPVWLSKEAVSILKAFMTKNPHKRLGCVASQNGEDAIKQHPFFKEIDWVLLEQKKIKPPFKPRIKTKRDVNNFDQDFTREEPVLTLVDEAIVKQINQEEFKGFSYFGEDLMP
# T2: PKC-ε (endogenous, human cell extracts) (human, UniProt Q02156 1-737)
# T2 construct: Two bands on the blot, said to be alternate splicing variants; also called PKC-epsilon; PKC-ε Band 1
# T2 sequence (looked up): T1 sequence
# B1: PRE 11 (peptide)
# peptide: Ac-RDAQNLIGISI-NH2
# notes: Synthetic peptide; also called peptide PRE 11
# B2: PRE 3 (peptide)
# peptide: Ac-AKGIQEVKGGDAQNLIGISI-NH2
# notes: Synthetic peptide; also called peptide PRE 3
# B3: PRE 7 (peptide)
# peptide: Ac-ISIGILQNADK-NH2
# notes: Synthetic peptide (retro form of PRE 4); also called peptide PRE 7
# B4: PRE 12 (peptide)
# peptide: Ac-KDAQNLI-NH2
# notes: Synthetic peptide; also called peptide PRE 12; Ac-KDAQNLI-NH2
# B5: PRE 13 (peptide)
# peptide: Ac-RDAQNLI-NH2
# notes: Synthetic peptide; also called peptide PRE 13; Ac-RDAQNLI-NH2
# B6: PRE 4 (peptide)
# peptide: Ac-KDAQNLIGISI-NH2
# notes: Synthetic peptide; also called peptide PRE 4
# B7: PRE 6 (peptide)
# peptide: Ac-KDANQLIGISI-NH2
# notes: Synthetic peptide; also called peptide PRE 6
# Target: T1, PKC-ε (purified isoform)
# Assay: competitive ELISA on purified PKC-ε vs anti-PKC-ε Ab; PRE 200 µM
# Method: (§1) Greiner 96 well ELISA plates were coated with the appropriate PKC isoform diluted in PBSN (PBS with Calcium/Magnesium+0.05% Sodium azide w/w). 50 μL/well at 250 ng/mL was used. Control wells contained PBSN only. Plates were incubated overnight at 4° C.
# (§2) The plates were washed 3 times with 200 μL of dH₂O per well, then 100 μL of blocking solution was added per well and the plate incubated for 1 h at 37° C. The washing steps with dH₂O were repeated and 50 μL of the appropriate PRE solution (PRE stock solution [20 mM in DMSO] diluted in PBSN) was added and the plate incubated for 1 h at room temperature.
# (§3) 50 μL of 1:1000 dilution of Alkaline Phosphatase (AP) conjugated antibody (anti-rabbit for all except zeta, which was anti-goat) was then added and the plate incubated for 1 h at room temperature. Washing with dH₂O was then repeated. Finally, 100 μL of pNPP solution in pNPP buffer (2 mM MgCl₂, 100 mM Sodium bicarbonate in water, pH 9.8) was added to all wells and incubated for 8 minutes for α, βI, βII ε, and ζ, or for 15-20 mins for […] (until sufficient coloration is observed). The reaction was stopped by addition of Stop solution (2N NaOH) and the absorbance at 405 nm was read on a Galaxy Plate reader.
row,Binder,binding capacity (%)
1,B1,9.84
2,B2,31
3,B3,3.78
4,B4,0
5,B5,0.85

# Target: T3, PKC-α (purified isoform) (Homo sapiens (Human), UniProt P17252 2-672)
# T3 construct: also called PKC-alpha; PKCalpha
# Assay: competitive ELISA on purified PKC-α vs anti-PKC-α Ab; PRE 100 µM
# Method: as §1
# (§4) After incubation, 5 μL of 1.1:400 anti-PKC (isoform specific antibody) was added per well (to provide a final concentration of 1:4000). For PKC-epsilon, 1.1:800 dilution was used and for PKC-zeta a 1.1:100 dilution was used due to high and low binding affinity, respectively. The plates were then incubated 1 h at room temperature, followed by washing with dH₂O as described above.
# as §3
row,Binder,binding capacity (%)
1,B6,21.9
2,B1,5.96
3,B2,26.5
4,B3,6.72
5,B4,5.16

# Target: T1, PKC-ε (purified isoform)
# Assay: competitive ELISA on purified PKC-ε vs anti-PKC-ε Ab; PRE 50 µM
# Method: as §1, §2, §3
row,Binder,binding capacity (%)
1,B1,2.25
2,B2,34
3,B3,8.04
4,B4,10.4
5,B5,0

# Target: T4, PKC-βI (purified isoform) (Homo sapiens (Human), UniProt P05771 2-671)
# T4 construct: also called PKC-beta I
# T4 sequence (P05771 2-671 limits assumed): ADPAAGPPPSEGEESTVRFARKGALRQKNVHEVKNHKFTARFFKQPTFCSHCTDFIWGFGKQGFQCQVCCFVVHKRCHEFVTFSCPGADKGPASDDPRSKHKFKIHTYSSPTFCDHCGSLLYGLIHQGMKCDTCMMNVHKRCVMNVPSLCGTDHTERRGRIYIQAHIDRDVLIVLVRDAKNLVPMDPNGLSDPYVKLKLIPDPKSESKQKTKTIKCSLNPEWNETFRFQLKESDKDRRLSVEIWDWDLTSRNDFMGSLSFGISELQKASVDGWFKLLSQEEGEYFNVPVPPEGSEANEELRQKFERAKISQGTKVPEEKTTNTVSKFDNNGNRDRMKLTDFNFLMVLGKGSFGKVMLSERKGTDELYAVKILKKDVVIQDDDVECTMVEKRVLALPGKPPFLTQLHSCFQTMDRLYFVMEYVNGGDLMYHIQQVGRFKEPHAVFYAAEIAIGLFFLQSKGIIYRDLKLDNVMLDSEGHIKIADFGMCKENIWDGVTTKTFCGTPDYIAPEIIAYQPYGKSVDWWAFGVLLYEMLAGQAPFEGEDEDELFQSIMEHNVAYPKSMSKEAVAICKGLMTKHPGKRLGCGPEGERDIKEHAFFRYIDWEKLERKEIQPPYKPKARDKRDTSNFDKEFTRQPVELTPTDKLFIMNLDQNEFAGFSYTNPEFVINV
# Assay: summary grade, purified isoform ELISA
row,Binder,binding result
1,B4,no binding (tested: 200 µM)
2,B5,no binding (tested: 200 µM)

# Target: T5, PKC-βII (purified isoform) (Homo sapiens (Human), UniProt P05771 2-621)
# T5 construct: also called PKC-beta II
# T5 sequence (P05771 other isoform, or with tags, fused parts or gaps limits assumed): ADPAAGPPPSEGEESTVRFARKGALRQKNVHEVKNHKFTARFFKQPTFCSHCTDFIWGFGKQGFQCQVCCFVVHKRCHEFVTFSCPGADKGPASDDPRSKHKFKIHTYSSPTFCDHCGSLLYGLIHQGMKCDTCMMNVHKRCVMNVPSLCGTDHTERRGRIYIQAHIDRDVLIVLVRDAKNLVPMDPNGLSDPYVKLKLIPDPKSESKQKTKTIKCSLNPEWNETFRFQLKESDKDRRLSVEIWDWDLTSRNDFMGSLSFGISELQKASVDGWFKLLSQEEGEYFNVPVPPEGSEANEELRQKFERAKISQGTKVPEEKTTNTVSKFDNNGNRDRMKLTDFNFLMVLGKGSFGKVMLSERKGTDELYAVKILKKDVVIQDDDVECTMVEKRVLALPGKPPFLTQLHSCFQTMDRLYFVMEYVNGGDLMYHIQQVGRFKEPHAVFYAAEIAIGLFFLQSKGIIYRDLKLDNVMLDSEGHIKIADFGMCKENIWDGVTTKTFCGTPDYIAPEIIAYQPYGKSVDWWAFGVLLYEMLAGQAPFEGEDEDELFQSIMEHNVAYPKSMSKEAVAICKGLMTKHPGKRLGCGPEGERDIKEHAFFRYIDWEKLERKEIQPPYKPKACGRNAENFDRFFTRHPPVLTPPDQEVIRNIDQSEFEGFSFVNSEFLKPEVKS
# Assay: summary grade, purified isoform ELISA
row,Binder,binding result
1,B7,no binding (tested: 200 µM)
2,B5,no binding (tested: 200 µM)

# Target: T1, PKC-ε (purified isoform)
# Assay: summary grade, purified isoform ELISA
row,Binder,binding result
1,B4,no binding (tested: 200 µM)
2,B5,no binding (tested: 200 µM)

# Target: T1, PKC-ε (purified isoform)
# Assay: competitive ELISA on purified PKC-ε vs anti-PKC-ε Ab; PRE 100 µM
# Method: as §1, §2, §3
row,Binder,binding capacity (%)
1,B1,13
2,B2,31.5
3,B3,14
4,B4,0.28
5,B5,0

# Target: T3, PKC-α (purified isoform)
# Assay: competitive ELISA on purified PKC-α vs anti-PKC-α Ab; PRE 200 µM
# Method: as §1, §4, §3
row,Binder,binding capacity (%)
1,B6,22.8
2,B1,13.3
3,B2,22.6
4,B3,6.59
5,B4,0

# Target: T2, PKC-ε (endogenous, human cell extracts)
# Assay: Protocol B blot competition, IMR-32 extract, competitor anti-PKC-ε Ab, Band 2; PRE 50 µg
# Method: The ability of the peptides PRE 2 and PRE 3 (see Table 3) to interfere with the binding of a PKC-α-specific polyclonal antibody (Santa Cruz Biotechnology, Inc.) to PKC-α was determined using a modified version of the protocol outlined above in which the test peptide was added directly to the cell extract prior to electrophoresis at a concentration of either 5× or 15× the concentration of the protein applied to each well of the gel for the Western blots (20 μg).
# Peptides PRE 2, PRE 3 and PRE 4 (see Table 3) were tested for their ability to interfere with the binding of isoform-specific polyclonal antibodies (Santa Cruz Biotechnology, Inc.) to PKC-ε using the general protocol described in Example 3. Two bands, representing alternate splicing variants of PKC-ε, were identified on the Western blot using this anti-PKC-ε antibody.
Binder,band intensity,inhibition (%),relative intensity (%)
B6,0,100,0
B2,0,100,0
